Each block holds one substance with its values, some of them ahead of it.
Columns and labels:
[1] = molecular target: nucleosome core particle: human histone octamer (H2A, H2B, H3.1, H4) wrapped by DNA (human) (UniProt P04908); assay: mass photometry; CLOCK-BMAL1 with NCP SHL+5.8-tandem (2 E-boxes with 7-bp spacing in a 601 sequence), 10 and 60 nM (1:6), 20 mM Tris-HCl pH 7.5, 100 mM KCl, 0.5 mM TCEP
[2] = molecular target: nucleosome core particle: human histone octamer (H2A, H2B, H3.1, H4) wrapped by DNA (human) (UniProt P04908); assay: mass photometry; CLOCK-BMAL1 with NCP SHL+5.8 (single E-box), 10 and 60 nM (1:6), 20 mM Tris-HCl pH 7.5, 100 mM KCl, 0.5 mM TCEP
[3] = molecular target: nucleosome core particle: human histone octamer (H2A, H2B, H3.1, H4) wrapped by DNA (human) (UniProt P04908); assay: mass photometry; CLOCK-BMAL1 with NCP SHL−6.2, 10 and 60 nM (1:6), 20 mM Tris-HCl pH 7.5, 100 mM KCl, 0.5 mM TCEP, 30 min room temperature
[4] = molecular target: nucleosome core particle with H2B(T122C–biotin): H2A–H2B(T122C–biotin)–H3.1–H4 octamer wrapped by DNA (human) (UniProt P04908); assay: FRET or BRET; LANCE TR-FRET forward titration: increasing His–MYC-MAX added to H2B(T122C)-biotinylated NCP SHL+5.1 with Eu-streptavidin, in the presence or absence of OCT4
[5] = tested on: MYC bHLH-LZ;MAX bHLH-LZ (human;human), P01106-1+P61244; assay: TR-FRET; conditions: about threefold vs without, EMSA/SeEN-seq: 20 mM Tris-HCl pH 7.5, 75 mM NaCl, 10 mM KCl, 1 mM MgCl2, 0.1 mg/ml BSA, 1 mM DTT, room temp ~1 h, TR-FRET: 20 mM Tris-HCl pH 7.5, 75 or 125 mM …
MYC bHLH-LZ;MAX bHLH-LZ (human;human), P01106-1+P61244, sequence (P01106 366-452, chain 1 of 2): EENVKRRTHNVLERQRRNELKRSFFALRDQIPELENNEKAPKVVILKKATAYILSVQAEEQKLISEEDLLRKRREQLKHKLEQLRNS
MYC bHLH-LZ;MAX bHLH-LZ (human;human), P01106-1+P61244, sequence (P61244 22-102, chain 2 of 2): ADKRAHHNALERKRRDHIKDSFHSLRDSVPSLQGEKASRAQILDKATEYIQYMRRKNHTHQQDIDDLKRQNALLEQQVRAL

[6] = molecular target: CLOCK bHLH PAS-AB;BMAL1 bHLH PAS-AB WT (mouse;mouse) (UniProt O08785+Q9WTL8); assay: mass photometry; conditions: EMSA/SeEN-seq: 20 mM Tris-HCl pH 7.5, 75 mM NaCl, 10 mM KCl, 1 mM MgCl2, 0.1 mg/ml BSA, 1 mM DTT, room temp ~1 h, TR-FRET: 20 mM Tris-HCl pH 7.5, 75 or 125 mM …
[7] = tested on: MYC bHLH-LZ;MAX bHLH-LZ (human;human), P01106-1+P61244; assay: SeEN-seq (EMSA + NGS); conditions: 62.5 nM TF; EMSA/SeEN-seq: 20 mM Tris-HCl pH 7.5, 75 mM NaCl, 10 mM KCl, 1 mM MgCl2, 0.1 mg/ml BSA, 1 mM DTT, room temp ~1 h; TR-FRET: 20 mM Tris-HCl pH 7.5, 75 or 125 mM …
[8] = molecular target: nucleosome core particle: human histone octamer (H2A, H2B, H3.1, H4) wrapped by DNA, P04908;P06899;P68431;P62805; assay: smTIRF colocalization single-molecule imaging; conditions: substrate NCP

- percent bound (total amount of CLOCK-BMAL1 bound, tandem E-boxes) [1]: 51%
- N (minority species) [2]: 2
- percent bound (total amount of CLOCK-BMAL1 bound, single E-box) [2]: 19%
- stoichiometry N [3]: 1
Substance: CLOCK-BMAL1 bHLH PAS-AB heterodimer (from UniProt O08785 26-395; Q9WTL8 62-441) (complex)

- fold strengthening of the binding isotherm in the presence of OCT4 [4]: 3 fold
Substance: MYC-MAX bHLH LZ heterodimer (from UniProt P61244 22-102) (complex)

Substance: NCP SHL+5.1 for TR-FRET
- binding signal (fold tighter with OCT4) [5]: 3

Substance: NCP SHL+5.8 (W601)
- binding signal ([6]; 20 nM NCP, single E-box): 19 % bound

Substance: NCP SHL+5.8-tandem
- binding signal ([6]; tandem E-box): 51 % bound

Substance: SeEN-seq NCP, E-box at SHL+5.8
- binding signal (log2 enrichment) [7]: 3.5

Substance: SeEN-seq NCP, E-box at SHL-6.2
- binding signal (log2 enrichment) [7]: 2.2

- other: dwell time τoff,1 [8]: 0.86 s
- other: dwell time τoff,2 [8]: 22 s
Substance: wild-type MYC-MAX–Spy, labelled with JF549–SpyCatcher (from UniProt P61244) MAX:Y73A; MAX:R76A

- other: dwell time τoff,1 [8]: 0.6 s
Substance: wild-type MYC-MAX–Spy, labelled with JF549–SpyCatcher (from UniProt P61244) MYC:S405Y; MYC:A408R

From article PMC10338342
